From the supplement of paper PMC9170038

How the values were obtained:
MS2 coat protein [1] = assay: apparent KD of MS2 coat protein, switch OFF state (with FMN for OFF switches, without FMN for ON switches); designed switch direction (-1 OFF switch, 1 ON switch): 1; higher = weaker reporter binding; conditions: FMN input: 0 or 200 uM; Eterna round: R93 (includes R88 designs)
Method in brief: (§1)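 On-chip transcription from Illumina sequencing clusters produced the designed RNA switches. These were titrated with SNAP-549-labelled MS2 coat protein (twofold steps, 0.7 or 1.5 nM to 3 µM) in 100 mM Tris-HCl pH 7.5, 80 mM KCl, 4 mM MgCl2, with or without constant ligand. The apparent KD given is the per-design median of normalised cluster binding-curve fits.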

MS2 coat protein [2] = assay: apparent KD of MS2 coat protein, switch ON state; designed switch direction (-1 OFF switch, 1 ON switch): 1; higher = weaker reporter binding; conditions: FMN input: 0 or 200 uM; Eterna round: R93 (includes R88 designs)
Method in brief: as §1

Row | Sequence | apparent KD of MS2 coat protein (MS2 coat protein [1]) [nM] | apparent KD of MS2 coat protein (MS2 coat protein [2]) [nM]
1 | GAAAAACAUGAGGAUCACCCAUGUAAAAAUAUGGGAGGAUAUACAAAGACGAAAGUCAAAGUAGAAGGCCUAAAAG [77%, Mat - Mod of Eli, 3] | 59.7 | 24.4
2 | AAAGAAGAAAGUCAGGAUAUGGAUGGGUAAACAUGAGGAUCACCCAUGUAUAAGAAAGAAAGAAACCAGAAGGGACAAAAGAAAA [Artaxerxes III] | 135 | 34.6
3 | GGGAGACAUGAGGAUCACCCAUGUGAGAAGAGGCGAGGAUAUCGAAAGAAAGAAGAGAAACGAGAAGGCGCGAGAA [salish99-SS1-049] | 64.4 | 37
4 | AAUACACAUGGUCAGGAUAUCGCAGCUAGGACAUGAGGAUCACCCAUGUCGCAUGUAACUGUAACCGAGAAGGGACAGGGUGAUC [JR_SS002_Sub411] | 92.6 | 123
5 | AAAGACAUGGUGUAGGAUAUAUUAAUAGUCACAUGAGGAUCACCCAUGUUCAGAUAUCUGAACGAGUAGAAGGACGAUGAAAAAA [SameState2 Malc#4] | 130 | 251
6 | AGAGUAAACAGAGAGGAUAUCCAAUAGAAAACAUGAGGAUCACCCAUGUGAAAGAUAAUAAAAUGGGAGAAGGCUCACAAUAAGA [Topaz 43] | 49.4 | 24.6
7 | AUAAAAUAAAGUGAGGAUAUCUAUAAUAAAACAUGAGGAUCACCCAUGUUAAAAAAAAGAUCAUGGGAGAAGGCAUAAAAUAAAU [SS2 M 31] | 21.7 | 7.51
8 | UAGAGACAUGAGGAUCACCCAUGUAGGAUUAUGGGAGGAUAUACAAAGACGAGAGUCAGAGUAGAAGGCCUAGGAG [salish99-ss1-135(!)] | 64.9 | 22
9 | AACAAUCUAUCUGAGGAUAUCAUGUCAAAGACAUGAGGAUCACCCAUGUAGCAGGAAACUGCUUAUGAGAAGGCAGAUAGAUUGA [SS2: 1114] | 450 | 69.4
10 | GAAAAACAUGAGGAUCACCCAUGUAGAAAUAUGGGAGGAUAUACAAAGACGAGAGUCAAAGUAGAAGGCCUAAAAG [Mat - Same State 1 - Eli mod - D9] | 86.7 | 28.4
11 | AAAAAAAAAACUCAGGAUAUAGAUUGUUGAACAUGAGGAUCACCCAUGUAGUGAAAAGCGAAAAACUAGAAGGGAGGAAAAAAAAA [SameState2-03] | 63.3 | 30.5
12 | UCCACCAUGGUACAGGAUAUGUCAGACCCGACAUGAGGAUCACCCAUGUGCGGUUCUUUUCCAACGCAGAAGGGUGCAUAGGUGG [Xevetia] | 43.9 | 17.1
13 | GAAAAACAUGAGGAUCACCCAUGUGUAAACAAGGGAGGAUAUACAAAGACGUAAGUCAAAGUAGAAGGCCUAAAAG [Garnet 38] | 47.1 | 25.6
14 | AGGAAACAUGAGGAUCACCCAUGUAAAAAUAUGGGAGGAUAUACGAAGAAAAAAAAAAAAGUAGAAGGCCUAAAAG [Garnet 11] | 345 | 90.7
15 | UAGAGACAUGAGGAUCACCCAUGUAGGAUUAUGGGAGGAUAUACAAAGACGAGAGUCAGAGUAGAAGGCCUAGGAA [salish99-ss1-133(!)] | 74.6 | 24.9
16 | GAGGACAUAGGAUAGGAUAUAUGAAUAAUUACAUGAGGAUCACCCAUGUCCAUUUAUAUGGGAACAUAGAAGGGUUGUAGUUAUC [SameState2 Malc#34] | 683 | 1070
17 | AGGAAACAUGAGGAUCACCCAUGUAAAAAAUAGGGAGGAUAUACUAGAAGAAACAAAAUAGUAGAAGGUCCAAAAA [75%, Ex sub1, 24] | 27.6 | 18.4
18 | AAUACACAUGGUCAGGAUAUCGCAGCUAGGACAUGAGGAUCACCCAUGUCGCACGUAACCGUAACCGAGAAGGGACAGGGUGAUC [JR_SS002_Sub410] | 34 | 21.8
19 | UUCUCCACUAGCAAGGAUAUCUAAAACUAAACAUGAGGAUCACCCAUGUGACGACCACACGUAUCAGAGAAGGUGCAGGGUGUAU [JR_SS002_Sub308] | 42.5 | 45.4
20 | AAAAGACAUGAGGAUCACCCAUGUCAAAAGACAUGAGGAUAUGUACAGACUUCGGUCUGUACAGAAGGCAUGUAAA [SS1 - 1069] | 21.6 | 16.3
